This note sets out measurements from article PMC4414373, “Relevance of glycosylation of S-layer proteins for cell surface properties” (Acta Biomaterialia, 2015).

This data set concerns the molecule itself. Put plainly: atomic force microscopy; S-layer (glyco)protein at 50 ug/mL recrystallized on gold-coated SPR and QCM-D sensor surfaces; lattice imaged in contact mode in a liquid cell under 100 mM NaCl.

B1: recombinant S-layer protein rSgsE(131-903), 130 amino acid N-terminal truncation of SgsE (domain or fragment, UniProt Q8VTF1 131-903, looked up)
chain: ATKLDKMRQELKAAVDAKDLKKAEELYHKISYELKTRTVILDRVYGQSTRELLRSTFKADAQALRDSLIYDITVAMKAREAQDAVKAGNLDKAKAALDQVNQYVSKVTDAFKAELQKAAQDAKAAYEAALPPKVESVTAVNAKTLEIKFNKAVDAATVIDNKGTSDTSDDVVKATAITLKAIDDQVPVSTVKASLSDDKKTLKLVVDGAQFFTKRYVVDIKNVKTLDGKDVPAYTTTIDTTDSVRPSVLSFSYADNGLTLKVKFSEPLASVGTVKLYDGTTEISVSPKFTAGDDEMTINLASSSVPVNKDLTLKIFGAVDYNGNVINPNPAELTVKKTTVDITKPVVQSIEAVNTKTVKVTFSEKLLSAPTIKIGGQTASVSVDSTGLVYTATLASALSKGVYAVEVSDYKDLAGNSGDAYTKVVQLKADNTAPKFVSSQVVKINGVEHLVLTFDEEVTTGSNITVVQSSDKYIDENNVLKAVGADLKTTSDNFKLYLPTDGKSKSVALNISSLPKGTYTVTLPNGLVSDLADNPYAERKQITFVRGSDSLTTKPALDKDYDSNGVKADNNNELVFAFTQNLDASALNLSNFNINGLTVTKAVFDGDTKHIRVTLAPGANTWTGTHVITISNIKNTSGLVMDTVTVNEYMKENVAPTFTATLTSADVIRVDFSEPVANATISRALSANNFIVKVDGNVVTVSNVYEDNNATNLVQGSKGYKTVYLKLQSPVTDLSKPITLSATDIVDVNQTGAITDNNVVGNNVSATVVNVAK
notes: S-layer protein SgsE of Geobacillus stearothermophilus NRS 2004/3a, residues 131-903; non-glycosylated; calculated molecular weight 82,800 Da; also called recombinantly produced non-glycosylated form of SgsE; source: E. coli BL21 Star (DE3), purified
Take B1: the binding result is given as “binds”.
